Sequences and labels used below:
B1: human Hsc20 (natural protein, UniProt Q8IWL3 72-235, looked up)
chain: DYFSLMDCNRSFRVDTAKLQHRYQQLQRLVHPDFFSQRSQTEKDFSEKHSTLVNDAYKTLLAPLSRGLYLLKLHGIEIPERTDYEMDRQFLIEIMEINEKLAEAESEAAMKEIESIVKAKQKEFTDNVSSAFEQDDFEEAKEILTKMRYFSNIEEKIKLKKIPL
B2: full-length human Nfu (natural protein, UniProt Q9UMS0 10-254, looked up)
chain: GAAAVAAGLRRRFCHMLKNPYTIKKQPLHQFVQRPLFPLPAAFYHPVRYMFIQTQDTPNPNSLKFIPGKPVLETRTMDFPTPAAAFRSPLARQLFRIEGVKSVFFGPDFITVTKENEELDWNLLKPDIYATIMDFFASGLPLVTEETPSGEAGSEEDDEVVAMIKELLDTRIRPTVQEDGGDVIYKGFEDGIVQLKLQGSCTSCPSSIITLKNGIQNMLQFYIPEVEGVEQVMDDESDEKEANSP

Where two headings read alike, the source gives them in different places.

The target of test [1] is human HSPA9 (human) (UniProt P38646).
human HSPA9 (human), sequence (P38646 47-679): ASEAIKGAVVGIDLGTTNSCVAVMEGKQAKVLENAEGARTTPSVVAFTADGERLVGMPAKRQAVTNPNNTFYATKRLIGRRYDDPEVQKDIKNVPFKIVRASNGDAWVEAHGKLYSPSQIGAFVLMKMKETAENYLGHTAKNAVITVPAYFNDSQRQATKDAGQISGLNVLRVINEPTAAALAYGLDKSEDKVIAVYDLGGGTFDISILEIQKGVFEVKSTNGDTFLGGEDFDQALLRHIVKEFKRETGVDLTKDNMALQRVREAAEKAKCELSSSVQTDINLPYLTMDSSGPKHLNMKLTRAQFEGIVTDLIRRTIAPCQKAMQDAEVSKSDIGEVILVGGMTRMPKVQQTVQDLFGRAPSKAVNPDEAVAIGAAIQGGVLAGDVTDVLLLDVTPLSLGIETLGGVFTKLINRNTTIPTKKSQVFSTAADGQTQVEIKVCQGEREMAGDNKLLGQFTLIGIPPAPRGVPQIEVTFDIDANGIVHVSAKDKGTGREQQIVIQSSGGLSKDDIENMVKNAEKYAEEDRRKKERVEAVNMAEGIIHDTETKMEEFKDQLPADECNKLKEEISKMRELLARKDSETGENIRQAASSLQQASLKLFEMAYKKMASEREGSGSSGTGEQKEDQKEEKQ
Test [2] shares this target. Briefly: ITC.
The target is the same in test [3]. In words: ITC. This is another data set of the same source.
Test [4] shares this target. Briefly: ITC. This is another data set of the same source.
The target in test [5] is human Hsc20 (human) (UniProt Q8IWL3). Briefly: ITC.
Test [6] shares this target. Briefly: ITC. This is another data set of the same source.
Test [7] deals with human HSPA9 (human) (UniProt P38646). In words: ITC. The source holds these as a separate data set.
For the next test, the target named is IscU (Escherichia coli) (UniProt P0ACD4). In words: SPR. Particulars: cited from earlier work.
IscU (Escherichia coli), sequence (P0ACD4 whole entry): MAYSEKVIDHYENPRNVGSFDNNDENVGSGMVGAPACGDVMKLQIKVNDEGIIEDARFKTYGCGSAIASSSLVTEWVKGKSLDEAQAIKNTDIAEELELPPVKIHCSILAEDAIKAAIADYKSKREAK
The test “full-length human Nfu” deals with B2. In words: ITC.
In test [8] the target is T1, human HSPA9 (human, UniProt P38646 47-679). In words: cell-based or functional assay.
T1 sequence (P38646 47-679): as the sequence (P38646 47-679) above
The target in test [9] is T1, human HSPA9. Briefly: ITC.
Test [10] deals with T2, human HSPA9/Hsc20 complex (human, UniProt P38646 47-679; Q8IWL3 72-235). In words: ITC.
T2 sequence (P38646 47-679, one chain of several): as the sequence (P38646 47-679) above
Test [11] concerns the target T2, human HSPA9/Hsc20 complex. In words: ITC. This is another data set of the same source.
The test “human Hsc20” has as its target B1. In words: ITC.
Test [12] addresses T1, human HSPA9. In words: ITC. The source holds these as a separate data set.

Turning to “C-terminal domain of human Nfu (from UniProt Q9UMS0 10-254) (domain or fragment)”, in the test with human HSPA9 (human) [1], the Vmax (maximum ratio of stimulation) of HSPA9 ATPase activity by C-Nfu, 0~150 µM was found to be 2.44 fold. Moreover, the Kd in the test with human HSPA9 (human) [2] worked out at 14.9 µM; in the test with human HSPA9 (human) [3] it was 30.3 µM; with human HSPA9 (human) [4], 51 µM; with human Hsc20 (human) [5] it was 11 µM; in the test with human Hsc20 (human) [6], 10 µM; in the test with human HSPA9 (human) [7], 18 µM. The dH was -3.82 kcal/mol in the test with human HSPA9 (human) [2]; -2 kcal/mol in the test with human HSPA9 (human) [3]; -3.2 kcal/mol with human HSPA9 (human) [4]; -1.7 kcal/mol with human Hsc20 (human) [5]; -0.57 kcal/mol with human Hsc20 (human) [6]; -7.3 kcal/mol with human HSPA9 (human) [7]. In addition, the stoichiometry N is 0.88 in the test with human HSPA9 (human) [2], 0.907 with human HSPA9 (human) [3], 0.94 in the test with human Hsc20 (human) [5] and 0.79 with human Hsc20 (human) [6].
Turning to HscA (from UniProt P0A6Z1), the Kd in the test with IscU (Escherichia coli) is 39 µM.
Regarding B1, the Kd with full-length human Nfu worked out at 10 ± 1 µM.
Consider B2, for which the “Vmax (maximum ratio of stimulation) of HSPA9 ATPase activity by Nfu, 0~150 µM” value in the test with human HSPA9 [8] came out at 3.78 fold. For the same molecule, the equilibrium dissociation constant (Kd) with human HSPA9 [9] is 36 ± 4 µM; in test [10], 9.43 ± 0.07 µM; in test [11], 0.3 ± 0.1 µM; with human HSPA9 [12], 8.3 ± 1.4 µM. Further, the dH with human HSPA9 [9] is -4.9 ± 0.1 kcal/mol; in test [10], -1.7 ± 0.1 kcal/mol; in test [11], -3.4 ± 0.1 kcal/mol; with human HSPA9 [12], -6.3 ± 0.7 kcal/mol. For the same molecule, the “stoichiometry N” value came to 0.9 ± 0.2 with human HSPA9 [9]; 0.985 ± 0.04 in test [10]; 0.95 ± 0.02 in test [11]; 0.93 ± 0.06 in the test with human Hsc20; 0.9 ± 0.1 with human HSPA9 [12].

The values above are taken from PMC5777896 (The FEBS journal, 2017).
